The text below walks through data of patent US20210292393A1 (published 2021).

Experiment [1] has as its target SARS-CoV-2 full length spike protein (wild type) (SARS-CoV-2, UniProt P0DTC2 14-1208).
Experiment [2] has as its target SARS-CoV-2 full length spike protein (wild-type), conjugated to optically encoded beads (SARS-CoV-2, UniProt P0DTC2 14-1208).
Experiment [3] has as its target SARS-CoV spike protein (full-length trimeric, on beads) (SARS-CoV, UniProt P59594 14-1190).

B1: antibody 316 (antibody, V domains shown)
VH: QVHLVESGGGVVQPGRSLRLSCAASGFTLTAYAMHWVRQAPGKRLEWVALISYDGSVKKYADSVKGRITVSGDTSTNTLHLQMNSLRADDTAVYYCVRGGVSGPNSFDLWGQGTMVTVSS
VL: DVVMTQSPLSLPVTLGQPASMSCRSSQSLEYSDGNTYVNWFHQRPGQSPRRLIYKVSYRDSGVPDRFSGSGSGTDFTLQISRVEAEDVGIYYCMQGTHWPVTFGQGTKVEIK
In the case of B1, the “median fluorescence intensity fold over isotype” value in experiment [1] is 442 fold over isotype control.

B2: antibody 509 (antibody, V domains shown)
VH: QVQLVESGGGVVQPGRSLRLSCAASGFNLSSYAMHWVRQASGKGLEWVSLISYDGSIKYYTDSVKGRFTVSGDNSKNTLFLQMNSLRADDSALYYCVRGGVSGPNSFDLWGQGTTVTVSS
VL: DVVMTQSPLSLPVTLGQPASISCRSSQSLVYSDGNTYVNWFQQRPGQSPRRLIYKVSIRASGVPDRFSGSGSGTDFALKISRVEAEDVGVYYCMQGTHWPVTFGQGTKVEIK
B2: in experiment [2], the “median fluorescence fold over isotype” value worked out at 496 fold over isotype.

B3: antibody 327 (antibody, V domains shown)
VH: QVQLVESGGGVVQPGRSLRLSCAASGFNLSNYAMHWVRQASGKGLEWVSLISYDGSIKYYTDSVKGRFTVSGDNSKNTLFLQMNSLRPDDSALYYCVRGGVSGPNSFDMWGQGTTVTVSS
VL: DVVMTQSPLSLPVTLGQPASISCRSSQSLVYSDGNTYVNWFQQRPGQSPRRLIYQVSIRASGVPDRFSGSGSGTDFALKISRVEAEDVGIYYCMQGTHWPVTFGQGTKVEIK
Take B3: in experiment [1], the “median fluorescence intensity fold over isotype” value was 413 fold over isotype control.

B4: antibody 363 (antibody, V domains shown)
VH: EVQLLESGGGLVQPGGSLRLSCAASGFTFSTYAMSWVRQAPGKGLEWVSAISGSGGSTYYADSVKGRFTISRDNSKNTLYLQMNSLRAEDTAVYYCASGYSPDYWGQGTLVTVSS
VL: not shown
Regarding B4, the “median fluorescence intensity fold over isotype” value in experiment [1] was determined as 1030 fold over isotype control.

B5: antibody 543 (antibody, V domains shown)
VH: EVQLVESGGGLVQPGRSLRLSCAASGFTFHDYAMHWVRQAPGKGLEWVSGISWNSGSIGYADSVKGRFTISRDNAKNSLYLQMNSLRAEDTALYYCAKDTFGSSSWYRGDSYYYYGMDVWGQGTTVTVSS
VL: QSALTQPASVSGSPGQSITISCTGTSSDVGGYNYVSWYQQHPGKAPKLMIYEVSNRPSGVSNRFSGSKSGNTASLTISGLQAEDEADYYCSSYTSSSTQRYVVFGGGTKLTVL
With B5, the “bead binding signal, fold over isotype control” value (from here on “bead binding signal, fold”) in experiment [3] was 1.03 fold over isotype.

B6: antibody 344 (antibody, V domains shown)
VH: QVQLVESGGGVVQPGRSLRLSCAASGFTFSSYAMHWVRQAPGKGLEWMAVISYDGSNKYYADSVKGRFTISRDNSKNTLYLQMNSLRAEDTAVYFCAKGYSGSYYEPFDYWGQGTLVTVSS
VL: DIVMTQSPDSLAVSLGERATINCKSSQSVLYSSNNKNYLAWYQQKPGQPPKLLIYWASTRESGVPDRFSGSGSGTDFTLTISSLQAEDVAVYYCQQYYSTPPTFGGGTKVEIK
In the case of B6, the “median fluorescence intensity fold over isotype” value in experiment [1] came to 404 fold over isotype control.

B7: antibody 533 (antibody, V domains shown)
VH: GVQLVESGGVVVQPGGSLRLSCAASGFSFDDYTMHWVRQAPGKGLEWVSLVSWDGGTTYYTDSVKGRFTISRDNSKNSLYLQMNSLRTEDTALYFCAKDSGRIVPAATFDYWGQGTLVTVSS
VL: DIQMTQSSSSLSASVGDRVTITCRASQDISNYLAWFQQKPGKAPKSLIYAASSLQSGVPSKFSGSGSGTDFTLTISSLQPEDFATYYCQQYYTYPLTFGGGTKVEIK
As to B7, in experiment [3], the “bead binding signal, fold” value worked out at 1.23 fold over isotype.

B8: antibody 345 (antibody, V domains shown)
VH: QVQLQESGPGLVKPSQTLSLTCTVSGGSISSGDYYWSWIRQPPGKGLEWIGYIYYSGSTYYNPSLKSRVTISVDTSKNQFSLKLSSVTAADTAVYYCARVGMVDNWNFEGNWFDPWGQGTLVTVSS
VL: QSALTQPRSVSGSPGQSVTISCTGTSSDVGGYNYVSWYQQHPGKAPKLMIYDVSKRPSGVPDRFSGSKSGNTASLTISGLQAEDEADYYCCSYAGSVVFGGGTKLTVL
Consider B8, for which the “median fluorescence intensity fold over isotype” value in experiment [1] turned out to be 562 fold over isotype control.

B9: antibody 348 (antibody, V domains shown)
VH: QVQLVQSGSELKKPGASVKVSCKASGYTFTSYAMNWVRQAPGQGLEWMGWINTNTGNPTYAQGFTGRFVFSLDTSVSTAYLQISSLKAEDTAVYYCARDHELPNTSSWFGHFEYWGQGTLVTVSS
VL: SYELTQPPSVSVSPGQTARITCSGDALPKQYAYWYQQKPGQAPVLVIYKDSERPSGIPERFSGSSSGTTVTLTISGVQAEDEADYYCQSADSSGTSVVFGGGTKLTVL
For B9, the “median fluorescence intensity fold over isotype” value in experiment [1] was determined as 869 fold over isotype control.

B10: antibody 317 (antibody, V domains shown)
VH: QVQLVQSGAEVKKPGASVKVSCKVSGYTLTELSMHWVRQAPGKGLEWMGGFDPEDGETIYAQKFQGRVTMTEDTSTDTAYMELSSLRSEDTAVYYCASSPAAAGTSQYYYYYGMDVWGQGTTVTVSS
VL: not shown
With B10, the “median fluorescence intensity fold over isotype” value in experiment [1] amounted to 890 fold over isotype control.

B11: antibody 541 (antibody, V domains shown)
VH: QVQLVQSGAEVKKPGASVKVSCKASGYTFTSYYVHWVRQAPGQSLEWMGVISPSTGSTTYAQNFQGRVTMTRDTSTTTVYMELSSLRSEDTAVYYCARDDYYDSTRYFDLWGRGTLVTVSS
VL: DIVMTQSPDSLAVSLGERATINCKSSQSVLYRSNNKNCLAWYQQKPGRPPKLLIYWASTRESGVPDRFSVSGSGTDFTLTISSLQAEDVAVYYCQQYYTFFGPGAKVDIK
In the case of B11, the “bead binding signal, fold” value in experiment [3] amounted to 1.2 fold over isotype.

B12: antibody 340 (antibody, V domains shown)
VH: QVQLVQSGAEVKKPGASVKVSCKASGYTFTSYDINWVRQATGQGLEWMGWMNPNSGNTGYAQKFQGRVTMTRNTSISTAYMELSSLRSEDTAVYYCARGRYCTGGVCWGDWYFDLWGRGTLVTVSS
VL: QSVLTQPPSVSGAPGQRVTISCTGSSSNIGAGYDVHWYQQLPGTAPKFLIYGNSNRPSGVPDRFSGSKSGTSASLAITGLQAEDEADYYCQSYDSSLSGPVFGGGTKLTVL
Consider B12, for which, in experiment [1], the “median fluorescence intensity fold over isotype” value amounted to 547 fold over isotype control.

B13: antibody 320 (antibody, V domains shown)
VH: QVQLVQSGAEVKKPGASVKVSCKASGYTFTSYGISWVRQAPGQGLEWMGWISAYNGNTNYAQKLQGRVTMTTDTSTRTAYMELRSLRSDDTAVYYCARVGCYYDSSGYSCAENFQHWGQGTLVTVSS
VL: QSVLTQPPSVSGAPGQRVTISCTGSSSNIGAGYDVHWYQQLPGTAPKLLIYGNSNRPSGVPDRFSGSKSGTSASLAITGLQAEDEADYYCQSYDSSLSALFGGGTKLTVL
Regarding B13, the “median fluorescence intensity fold over isotype” value in experiment [1] came out at 1200 fold over isotype control.

B14: antibody 522 (antibody, V domains shown)
VH: EVQLVESGGGLVQPGGSLRLSCAASGFNFSSYSMNWVRQAPGKGLEWVSYISSSSSTIYYADSVKGRFTISRDNAKNSLYLQMNSLRDEDTAVYYCARGPEWDIVVVQAENWFDPWGQGTLVTVSS
VL: SYELTQPPSVSVSPGQTARITCSGDALPKQYVYWYQQKPGQAPVLVIYKDSERPSGIPERFSGSSSGTTVTLTISGVQAEDEADYYCQSADSSGTYRGVFGGGTKLTVL
With B14, the “bead binding signal, fold” value in experiment [3] is 1.21 fold over isotype.

B15: antibody 323 (antibody, V domains shown)
VH: QVQLVQSGAEVKKPGASVKVSCKVSGYTLTELSMHWVRQAPGKGLEWMGGFDPEDGETIYAQKFQGRVTMTEDTSTDTAYMELSSLRSEDTAVYYCATSTIFAPGGWFDPWGQGTLVTVSS
VL: QSALTQPASVSGSPGQSITISCTGTSSDVGSYNLVSWYQQHPGKAPKLMIYEVSKRPSGVSNRFSGSKSGNTASLTISGLQAEDEADYYCCSYAGSTHYVFGTGTKVTVL
B15: the “median fluorescence intensity fold over isotype” value in experiment [1] was determined as 994 fold over isotype control.

B16: antibody 504 (antibody, V domains shown)
VH: QVQLVESGGGVVQPGRSLRLSCAASGFTFSSYGMHWVRQAPGKGLEWVAVISYDGSNKYYADSVKGRFTISRDNSKNTLYLQMNSLRAEDTAVYYCAKGGGGGYCSGGSCYSHYFDYWGQGTLVTVSS
VL: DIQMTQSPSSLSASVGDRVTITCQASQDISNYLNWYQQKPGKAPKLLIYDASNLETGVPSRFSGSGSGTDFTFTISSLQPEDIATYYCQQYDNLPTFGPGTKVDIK
Consider B16, for which the “median fluorescence fold over isotype” value in experiment [2] came to 709 fold over isotype.

B17: antibody 326 (antibody, V domains shown)
VH: QITLKESGPTLVKPTQTLTLTCTFSGFSLNTSGVGVGWIRQPPGKALEWLSLIFWNDDKRYSPSLRSRLTITKDTSKNQVVLTMTNMDPVDTATYFCAHRNSGWSLKFDSWGQGSLVTVSA
VL: DIQMTQSPSSVSASVGDRVTITCRARQGISSWLVWYQQKPGKAPKLLIFGASSLQSGVPSRFNASGTGTEFTLTISSLQPEDFATYYCQQADSFPITFGQGTRLEIK
As to B17, the “median fluorescence intensity fold over isotype” value in experiment [1] worked out at 193 fold over isotype control.

B18: antibody 523 (antibody, V domains shown)
VH: EVQLVESGGVSVQPGGSLRLSCAASGFSFNTYDMHWVRQGTGKGLEWVSGIGTAGDTYYSDSVKGRCTISRDNAKNSLHLLVKSVRAADTAVYYCARGVGGIIDYWGQGTLVTVSS
VL: NFVLSQPHSVSESPGKTVTISCTGNSGSIATKYVQWFQQRPGSAPTTVIYEDNQRPSGVPDRFSGSSDSSSNSASLTISGLKTEDEAHYYCQSYHNRRWVFGGGTKLTVL
For B18, the “bead binding signal, fold” value in experiment [3] was 1.11 fold over isotype.

B19: antibody 331 (antibody, V domains shown)
V domain 1: QITLKESGPTLVKPTETLTLTCSFSGFSLTKTGEAAGWIRQAPGRALEWVTVIFWDDDKRYSPSLQNRISVTKDTSKNQVVLRMTNVARFDTGTYFCWAMGGPGKEYFGQGTLVAVSS
V domain 2: QSVLTQPPSVSGAPGQRVTISCTGTSSSIGPYSDVHWYQHVSGKAPRLLIFGNSNRPSGVPDRFSGSKSGTSASLVIAGLQAEDEADYYCQSYDSSLGEIYVFGTGTTVTVL
For B19, the “median fluorescence intensity fold over isotype” value in experiment [1] was determined as 850 fold over isotype control.

B20: antibody 339 (antibody, V domains shown)
V domain 1: QITLKESGPTLVKPTETLTLTCSFSGFSLTRTGEAAGWIRQAPGRALEWVTVIFWDDDKRYSPSLQSRLTVTKDTSKNQVVLTMTNVARFDTATYFCWAMGGPGKEYFGQGTQVAVSS
V domain 2: QSVLTQPPSVSGAPGQRVTISCTGTSSSIGPYSDVHWYQHVSGKAPRLLIFGNSNRPSGVPDRFSGSKSGTSASLVIAGLQAEDEADYYCQSYDSSLGEIYVFGTGTTVTVL
In the case of B20, the “median fluorescence intensity fold over isotype” value in experiment [1] was determined as 874 fold over isotype control.

B21: antibody 329 (antibody, V domains shown)
VH: EVQLVESGGGLVQPGGSLRLSCAASGFTFSSYWMHWVRQAPGKGLVWVSRINSDGSSTSYADSVKGRFTISRDNAKNTLYLQMNSLRAEDTAVYYCAREGIVATITLDYWGQGTLVTVSS
VL: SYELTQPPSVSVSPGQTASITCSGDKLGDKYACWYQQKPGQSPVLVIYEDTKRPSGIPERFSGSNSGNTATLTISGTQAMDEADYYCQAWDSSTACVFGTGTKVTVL
Take B21: in experiment [1], the “median fluorescence intensity fold over isotype” value is 497 fold over isotype control.

B22: antibody 537 (antibody, V domains shown)
VH: QVQLQQWGAGLLKPSETLSLTCAVYGGSFSGYYWSWIRQPPGKGLEWIGEINHSGSTNYNPSLKSRVTISVDTSKNQFSLKLSSVTAADTAVYYCARGLYYDMGGGFDYWGQGTLVTVSS
VL: not shown
Turning to B22, in experiment [3], the “bead binding signal, fold” value is 1.04 fold over isotype.
